Test results reported in publication PMC7116888 (Nature, 2020).
One block for each binder: values may come before it.

Key:
[1] = molecular target: T1, Ste4-Ste18 dimer (βγ dimer) (Saccharomyces cerevisiae, UniProt P18851 1-423; P18852 1-110, C106S | C107S); assay: SEC
T1 sequence (looked up) 1: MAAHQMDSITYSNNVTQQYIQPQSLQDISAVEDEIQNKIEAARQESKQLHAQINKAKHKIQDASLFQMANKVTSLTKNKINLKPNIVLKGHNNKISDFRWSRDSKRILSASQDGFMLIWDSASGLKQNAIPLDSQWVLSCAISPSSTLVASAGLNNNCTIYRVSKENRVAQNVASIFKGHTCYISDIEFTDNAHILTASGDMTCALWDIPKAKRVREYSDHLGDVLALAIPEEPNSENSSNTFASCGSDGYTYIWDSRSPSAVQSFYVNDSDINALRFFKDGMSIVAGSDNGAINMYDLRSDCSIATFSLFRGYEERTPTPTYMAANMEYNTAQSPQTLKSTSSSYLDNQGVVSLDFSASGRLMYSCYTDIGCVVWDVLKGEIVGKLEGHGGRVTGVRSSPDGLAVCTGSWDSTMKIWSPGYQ
T1 sequence (looked up) 2: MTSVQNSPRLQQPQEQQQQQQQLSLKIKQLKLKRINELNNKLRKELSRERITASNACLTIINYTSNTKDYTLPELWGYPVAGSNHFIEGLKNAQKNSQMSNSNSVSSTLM

[2] = molecular target: T2, α-factor-bound Ste2 (Ste2 dimer purified with α-factor) (Saccharomyces cerevisiae, UniProt D6VTK4 1-431, N-acetylglucosamine modelled at Asn25); assay: SEC-MALS
[3] = molecular target: T2, α-factor-bound Ste2 (Ste2 dimer …); assay: cryo-EM structure
cryo-EM structure = molecular target: the molecule itself; assay: cryo-EM structure

B1: wild type Gpa1 (S. cerevisiae G protein α-subunit) (natural protein, Saccharomyces cerevisiae, UniProt P08539 1-472, looked up)
chain: MGCTVSTQTIGDESDPFLQNKRANDVIEQSLQLEKQRDKNEIKLLLLGAGESGKSTVLKQLKLLHQGGFSHQERLQYAQVIWADAIQSMKILIIQARKLGIQLDCDDPINNKDLFACKRILLKAKALDYINASVAGGSDFLNDYVLKYSERYETRRRVQSTGRAKAAFDEDGNISNVKSDTDRDAETVTQNEDADRNNSSRINLQDICKDLNQEGDDQMFVRKTSREIQGQNRRNLIHEDIAKAIKQLWNNDKGIKQCFARSNEFQLEGSAAYYFDNIEKFASPNYVCTDEDILKGRIKTTGITETEFNIGSSKFKVLDAGGQRSERKKWIHCFEGITAVLFVLAMSEYDQMLFEDERVNRMHESIMLFDTLLNSKWFKDTPFILFLNKIDLFEEKVKSMPIRKYFPDYQGRVGDAEAGLKYFEKIFLSLNKTNKPIYVKRTCATDTQTMKFVLSAVTDLIIQQNLKKIGII
- binding result [1]: binds

B4: Ste2 (wild-type Saccharomyces cerevisiae pheromone receptor, residues 1-431), purified (receptor, UniProt D6VTK4 1-431, looked up)
chain: MSDAAPSLSNLFYDPTYNPGQSTINYTSIYGNGSTITFDELQGLVNSTVTQAIMFGVRCGAAALTLIVMWMTSRSRKTPIFIINQVSLFLIILHSALYFKYLLSNYSSVTYALTGFPQFISRGDVHVYGATNIIQVLLVASIETSLVFQIKVIFTGDNFKRIGLMLTSISFTLGIATVTMYFVSAVKGMIVTYNDVSATQDKYFNASTILLASSINFMSFVLVVKLILAIRSRRFLGLKQFDSFHILLIMSCQSLLVPSIIFILAYSLKPNQGTDVLTTVATLLAVLSLPLSSMWATAANNASKTNTITSDFTTSTDRFYPGTLSSFQTDSINNDAKSSLRSRLYDLYPRRKETTSDKHSERTFVSETADDIEKNQFYQLPTPTSSKNTRIGPFADASYKEGEVEPVDMYTPDTAADEEARKFWTEDNNNL
modifications: N-acetylglucosamine modelled at Asn25
- stoichiometry N (cryo-EM structure): 2

Further lines, results first:

- stoichiometry N [2]: 2 G proteins per Ste2 dimer
B2: wild type Gpa1 heterotrimer (Gpa1-Ste4-Ste18) (complex, Saccharomyces cerevisiae)
chain 1: MGCTVSTQTIGDESDPFLQNKRANDVIEQSLQLEKQRDKNEIKLLLLGAGESGKSTVLKQLKLLHQGGFSHQERLQYAQVIWADAIQSMKILIIQARKLGIQLDCDDPINNKDLFACKRILLKAKALDYINASVAGGSDFLNDYVLKYSERYETRRRVQSTGRAKAAFDEDGNISNVKSDTDRDAETVTQNEDADRNNSSRINLQDICKDLNQEGDDQMFVRKTSREIQGQNRRNLIHEDIAKAIKQLWNNDKGIKQCFARSNEFQLEGSAAYYFDNIEKFASPNYVCTDEDILKGRIKTTGITETEFNIGSSKFKVLDAGGQRSERKKWIHCFEGITAVLFVLAMSEYDQMLFEDERVNRMHESIMLFDTLLNSKWFKDTPFILFLNKIDLFEEKVKSMPIRKYFPDYQGRVGDAEAGLKYFEKIFLSLNKTNKPIYVKRTCATDTQTMKFVLSAVTDLIIQQNLKKIGII
chain 2: MAAHQMDSITYSNNVTQQYIQPQSLQDISAVEDEIQNKIEAARQESKQLHAQINKAKHKIQDASLFQMANKVTSLTKNKINLKPNIVLKGHNNKISDFRWSRDSKRILSASQDGFMLIWDSASGLKQNAIPLDSQWVLSCAISPSSTLVASAGLNNNCTIYRVSKENRVAQNVASIFKGHTCYISDIEFTDNAHILTASGDMTCALWDIPKAKRVREYSDHLGDVLALAIPEEPNSENSSNTFASCGSDGYTYIWDSRSPSAVQSFYVNDSDINALRFFKDGMSIVAGSDNGAINMYDLRSDCSIATFSLFRGYEERTPTPTYMAANMEYNTAQSPQTLKSTSSSYLDNQGVVSLDFSASGRLMYSCYTDIGCVVWDVLKGEIVGKLEGHGGRVTGVRSSPDGLAVCTGSWDSTMKIWSPGYQ
chain 3: MTSVQNSPRLQQPQEQQQQQQQLSLKIKQLKLKRINELNNKLRKELSRERITASNACLTIINYTSNTKDYTLPELWGYPVAGSNHFIEGLKNAQKNSQMSNSNSVSSTLM

- stoichiometry N [3]: 2 G protein heterotrimers per Ste2 homodimer
B3: mini-Gpa1 heterotrimer (mini-Gpa1-Ste4-Ste18) (complex, Saccharomyces cerevisiae)
chain 1: TVSTQTIGDESDPFLQNKRANDVIEQSLQLEKQRDKNEIKLLLLGADNSGKSTVLKQLKLLHGGSGGSGGTTGITETEFNIGSSKFKVLDAGGQRSERKKWIHCFEGITAVLFVLDMSDYNRMHESIMLFDTLLNSKWFKDTPFILFLNKIDLFEEKVKSMPIRKYFPDYQGRVGDAEAGLKYFEKIFLSLNKTNKPIYVKRTCATDTQTAKFILSAVTDLIIQQNLKKIGII
chain 2: MAAHQMDSITYSNNVTQQYIQPQSLQDISAVEDEIQNKIEAARQESKQLHAQINKAKHKIQDASLFQMANKVTSLTKNKINLKPNIVLKGHNNKISDFRWSRDSKRILSASQDGFMLIWDSASGLKQNAIPLDSQWVLSCAISPSSTLVASAGLNNNCTIYRVSKENRVAQNVASIFKGHTCYISDIEFTDNAHILTASGDMTCALWDIPKAKRVREYSDHLGDVLALAIPEEPNSENSSNTFASCGSDGYTYIWDSRSPSAVQSFYVNDSDINALRFFKDGMSIVAGSDNGAINMYDLRSDCSIATFSLFRGYEERTPTPTYMAANMEYNTAQSPQTLKSTSSSYLDNQGVVSLDFSASGRLMYSCYTDIGCVVWDVLKGEIVGKLEGHGGRVTGVRSSPDGLAVCTGSWDSTMKIWSPGYQ
chain 3: MTSVQNSPRLQQPQEQQQQQQQLSLKIKQLKLKRINELNNKLRKELSRERITASNACLTIINYTSNTKDYTLPELWGYPVAGSNHFIEGLKNAQKNSQMSNSNSVSSTLM
